Source: publication PMC11371640, “Structural deficits in key domains of Shank2 lead to alterations in postsynaptic nanoclusters and to a neurodevelopmental disorder in humans” (Molecular Psychiatry, 2022)
Residue numbers refer to the chain shown, from its start. In names and notes the source's numbering stands.

B1: mCherry-tagged human Shank2a (WT), Q9UPX8-3 S610Y (protein)
chain: MPRSPTSSEDEMAQSFSDYSVGSESDSSKEETIYDTIRATAEKPGGARTEESQGNTLVIRVVIHDLQQTKCIRFNPDATVWVAKQRILCTLTQSLKDVLNYGLFQPASNGRDGKFLDEERLLREYPQPVGEGVPSLEFRYKKRVYKQASLDEKQLAKLHTKTNLKKCMDHIQHRLVEKITKMLDRGLDPNFHDPETGETPLTLAAQLDDSVEVIKALKNGGAHLDFRAKDGMTALHKAARARNQVALKTLLELGASPDYKDSYGLTPLYHTAIVGGDPYCCELLLHEHATVCCKDENGWHEIHQACRYGHVQHLEHLLFYGADMSAQNASGNTALHICALYNQDSCARVLLFRGGNKELKNYNSQTPFQVAIIAGNFELAEYIKNHKETDIVPFREAPAYSNRRRRPPNTLAAPRVLLRSNSDNNLNASAPDWAVCSTATSHRSLSPQLLQQMPSKPEGAAKTIGSYVPGPRSRSPSLNRLGGAGEDGKRPQPLWHVGSPFALGANKDSLSAFEYPGPKRKLYSAVPGRLFVAVKPYQPQVDGEIPLHRGDRVKVLSIGEGGFWEGSARGHIGWFPAECVEEVQCKPRDSQAETRADRSKKLFRHYTVGYYDSFDTSSDCIIEEKTVVLQKKDNEGFGFVLRGAKADTPIEEFTPTPAFPALQYLESVDEGGVAWQAGLRTGDFLIEVNNENVVKVGHRQVVNMIRQGGNHLVLKVVTVTRNLDPDDTARKKAPPPPKRAPTTALTLRSKSMTSELEELVDKASVRKKKDKPEEIVPASKPSRAAENMAVEPRVATIKQRPSSRCFPAGSDMNSVYERQGIAVMTPTVPGSPKAPFLGIPRGTMRRQKSIDSRIFLSGITEEERQFLAPPMLKFTRSLSMPDTSEDIPPPPQSVPPSPPPPSPTTYNCPKSPTPRVYGTIKPAFNQNSAAKVSPATRSDTVATMMREKGMYFRRELDRYSLDSEDLYSRNAGPQANFRNKRGQMPENPYSEVGKIASKAVYVPAKPARRKGMLVKQSNVEDSPEKTCSIPIPTIIVKEPSTSSSGKSSQGSSMEIDPQAPEPPSQLRPDESLTVSSPFAAAIAGAVRDREKRLEARRNSPAFLSTDLGDEDVGLGPPAPRTRPSMFPEEGDFADEDSAEQLSSPMPSATPREPENHFVGGAEASAPGEAGRPLNSTSKAQGPESSPAVPSASSGTAGPGNYVHPLTGRLLDPSSPLALALSARDRAMKESQQGPKGEAPKADLNKPLYIDTKMRPSLDAGFPTVTRQNTRGPLRRQETENKYETDLGRDRKGDDKKNMLIDIMDTSQQKSAGLLMVHTVDATKLDNALQEEDEKAEVEMKPDSSPSEVPEGVSETEGALQISAAPEPTTVPGRTIVAVGSMEEAVILPFRIPPPPLASVDLDEDFIFTEPLPPPLEFANSFDIPDDRAASVPALSDLVKQKKSDTPQSPSLNSSQPTNSADSKKPASLSNCLPASFLPPPESFDAVADSGIEEVDSRSSSDHHLETTSTISTVSSISTLSSEGGENVDTCTVYADGQAFMVDKPPVPPKPKMKPIIHKSNALYQDALVEEDVDSFVIPPPAPPPPPGSAQPGMAKVLQPRTSKLWGDVTEIKSPILSGPKANVISELNSILQQMNREKLAKPGEGLDSPMGAKSASLAPRSPEIMSTISGTRSTTVTFTVRPGTSQPITLQSRPPDYESRTSGTRRAPSPVVSPTEMNKETLPAPLSAATASPSPALSDVFSLPSQPPSGDLFGLNPAGRSRSPSPSILQQPISNKPFTTKPVHLWTKPDVADWLESLNLGEHKEAFMDNEIDGSHLPNLQKEDLIDLGVTRVGHRMNIERALKQLLDR
B2: mCherry-tagged human Shank2a (WT), Q9UPX8-3 N690S (protein)
chain: B1 chain with Y610S, N690S
B3: mCherry-tagged human Shank2a (WT), Q9UPX8-3 G643R (protein)
chain: B1 chain with Y610S, G643R

Target: T1, GST fusion protein of the GKAP C-terminus (50 C-terminal residues), P97836-4
T1 chain: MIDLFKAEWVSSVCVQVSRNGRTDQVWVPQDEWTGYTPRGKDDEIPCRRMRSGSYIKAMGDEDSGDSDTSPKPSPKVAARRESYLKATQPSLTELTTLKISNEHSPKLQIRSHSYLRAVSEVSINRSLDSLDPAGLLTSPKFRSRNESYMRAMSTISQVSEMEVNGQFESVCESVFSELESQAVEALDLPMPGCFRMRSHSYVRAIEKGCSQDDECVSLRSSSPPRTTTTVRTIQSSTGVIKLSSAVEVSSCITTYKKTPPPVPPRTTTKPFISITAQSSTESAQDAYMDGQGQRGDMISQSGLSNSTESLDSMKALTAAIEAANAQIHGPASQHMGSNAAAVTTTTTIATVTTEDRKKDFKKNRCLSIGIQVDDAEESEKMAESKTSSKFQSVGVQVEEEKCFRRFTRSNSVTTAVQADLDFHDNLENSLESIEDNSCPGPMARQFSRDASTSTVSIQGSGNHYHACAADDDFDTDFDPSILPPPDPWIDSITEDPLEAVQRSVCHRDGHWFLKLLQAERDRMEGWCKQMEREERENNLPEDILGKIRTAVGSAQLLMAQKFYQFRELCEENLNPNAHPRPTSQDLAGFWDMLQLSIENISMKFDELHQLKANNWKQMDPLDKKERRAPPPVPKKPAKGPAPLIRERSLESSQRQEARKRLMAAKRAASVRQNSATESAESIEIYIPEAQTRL
Experiment: GST pulldown, Western blot quantification
Settings: chain shown with the change; 293T cell lysates; four independent experiments; parent: est. 3.8; read off a plot

Row | Binder | response (Precipitate / Input)
1 | B1 | 2.4
2 | B2 | 2.8
3 | B3 | 0.3
